The record followed here is paper PMC11510448.

Assay [1] has as its target human Cu/Zn Superoxide Dismutase 1, A4V variant (Flag-SOD1-6His) (human) (UniProt P00441). Nature of the assay: native gel or EMSA; Native-PAGE of selected gel filtration fractions, SDS-free 10% gel, samples not boiled, run at RT, Coomassie stain; ESTDZ2 (ca. 28 kDa) as size standard. A general note: Mobility shift assays separate free from complexed probe on a gel.
Assay [2] has the same target. Nature of the assay: SEC; gel filtration of the Ni-NTA eluate on a custom-made calibrated Sephacryl S-200 column (1.2 x 100 cm), TBS pH 7.4, UV detection at 280 nm.

The stoichiometry N is the number of molecules, sites or subunits per partner or assembly.

As for “human Cu/Zn Superoxide Dismutase 1, A4V variant (Flag-SOD1-6His) (from UniProt P00441 6-154) (enzyme)”, the stoichiometry N in assay [1] and in assay [2] was 2 throughout.
